Tests used:
[1] = target: T1, human FLAG-SCAPER (recombinant, purified) (human, UniProt Q9BY12 1-1400); test: cryo-EM structure; β-tubulin RNCs from rabbit reticulocyte lysate with recombinant Strep-TTC5 and FLAG-SCAPER, affinity purified via TTC5; SCAPER with TTC5; details: both partners purified
T1 construct: SCAPER, human cDNA from Genscript recloned with an N-terminal FLAG tag; construct names (aa351-1400) imply 1400 residues; In the cryo-EM map only the part from residue 859 on (CTD) was resolved; also called recombinant SCAPER; source: Expi293 cells, transfected, purified (anti-FLAG resin, 3xFLAG peptide elution); not shown: FLAG, N-terminal, kept
T1 sequence: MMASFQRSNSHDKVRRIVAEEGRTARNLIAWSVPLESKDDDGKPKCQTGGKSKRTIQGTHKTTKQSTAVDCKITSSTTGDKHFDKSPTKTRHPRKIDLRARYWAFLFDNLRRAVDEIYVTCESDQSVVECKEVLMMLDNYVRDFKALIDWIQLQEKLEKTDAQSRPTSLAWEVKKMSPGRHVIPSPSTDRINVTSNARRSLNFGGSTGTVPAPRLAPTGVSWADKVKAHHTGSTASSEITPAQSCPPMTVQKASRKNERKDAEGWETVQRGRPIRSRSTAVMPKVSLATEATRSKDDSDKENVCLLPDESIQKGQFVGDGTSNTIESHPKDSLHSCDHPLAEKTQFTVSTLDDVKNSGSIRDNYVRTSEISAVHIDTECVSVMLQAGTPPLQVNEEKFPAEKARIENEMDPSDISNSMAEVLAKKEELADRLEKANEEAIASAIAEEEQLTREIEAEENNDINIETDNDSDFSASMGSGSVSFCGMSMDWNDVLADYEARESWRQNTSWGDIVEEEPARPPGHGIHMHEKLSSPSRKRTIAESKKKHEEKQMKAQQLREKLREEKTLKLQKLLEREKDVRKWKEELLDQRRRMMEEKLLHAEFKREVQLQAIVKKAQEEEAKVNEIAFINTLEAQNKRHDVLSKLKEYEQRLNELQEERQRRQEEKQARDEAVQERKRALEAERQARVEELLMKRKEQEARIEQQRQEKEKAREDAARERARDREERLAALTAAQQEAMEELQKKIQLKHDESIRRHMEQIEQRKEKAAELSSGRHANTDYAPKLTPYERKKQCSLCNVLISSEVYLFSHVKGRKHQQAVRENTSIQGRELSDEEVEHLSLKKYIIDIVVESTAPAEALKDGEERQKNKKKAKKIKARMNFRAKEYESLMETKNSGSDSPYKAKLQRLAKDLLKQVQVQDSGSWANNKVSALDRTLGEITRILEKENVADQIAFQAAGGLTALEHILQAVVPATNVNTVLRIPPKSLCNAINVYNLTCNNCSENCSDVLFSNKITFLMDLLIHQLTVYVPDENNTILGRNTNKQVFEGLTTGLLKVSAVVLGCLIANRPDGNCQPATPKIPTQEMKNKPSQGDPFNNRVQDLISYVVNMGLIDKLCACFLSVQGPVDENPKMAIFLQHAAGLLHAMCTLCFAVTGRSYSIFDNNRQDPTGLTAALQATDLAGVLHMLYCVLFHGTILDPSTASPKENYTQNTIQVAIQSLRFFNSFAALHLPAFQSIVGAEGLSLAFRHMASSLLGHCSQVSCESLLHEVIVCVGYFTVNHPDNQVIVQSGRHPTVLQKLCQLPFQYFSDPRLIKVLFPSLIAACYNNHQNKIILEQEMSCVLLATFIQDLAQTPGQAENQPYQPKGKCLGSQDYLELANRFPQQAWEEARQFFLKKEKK

[2] = target: T2, human SCAPER-FLAG (recombinant, purified) (human, UniProt Q9BY12 1-1400); test: pull-down; 100 nM SCAPER-FLAG and 150 nM Strep-TTC5 in IP buffer (50 mM HEPES pH 7.4, 100 mM KAc, 5 mM MgAc2, 1 mM DTT, 0.01% digitonin), 4°C; Streptactin magnetic beads; Coomassie; details: both partners purified
T2 construct: SCAPER, human cDNA from Genscript; construct names (aa351-1400) imply 1400 residues; also called S-phase cyclin A associated protein residing in the ER; source: Expi293 cells, transfected, purified (anti-FLAG resin, 3xFLAG peptide elution); not shown: FLAG, C-terminal, kept
T2 sequence: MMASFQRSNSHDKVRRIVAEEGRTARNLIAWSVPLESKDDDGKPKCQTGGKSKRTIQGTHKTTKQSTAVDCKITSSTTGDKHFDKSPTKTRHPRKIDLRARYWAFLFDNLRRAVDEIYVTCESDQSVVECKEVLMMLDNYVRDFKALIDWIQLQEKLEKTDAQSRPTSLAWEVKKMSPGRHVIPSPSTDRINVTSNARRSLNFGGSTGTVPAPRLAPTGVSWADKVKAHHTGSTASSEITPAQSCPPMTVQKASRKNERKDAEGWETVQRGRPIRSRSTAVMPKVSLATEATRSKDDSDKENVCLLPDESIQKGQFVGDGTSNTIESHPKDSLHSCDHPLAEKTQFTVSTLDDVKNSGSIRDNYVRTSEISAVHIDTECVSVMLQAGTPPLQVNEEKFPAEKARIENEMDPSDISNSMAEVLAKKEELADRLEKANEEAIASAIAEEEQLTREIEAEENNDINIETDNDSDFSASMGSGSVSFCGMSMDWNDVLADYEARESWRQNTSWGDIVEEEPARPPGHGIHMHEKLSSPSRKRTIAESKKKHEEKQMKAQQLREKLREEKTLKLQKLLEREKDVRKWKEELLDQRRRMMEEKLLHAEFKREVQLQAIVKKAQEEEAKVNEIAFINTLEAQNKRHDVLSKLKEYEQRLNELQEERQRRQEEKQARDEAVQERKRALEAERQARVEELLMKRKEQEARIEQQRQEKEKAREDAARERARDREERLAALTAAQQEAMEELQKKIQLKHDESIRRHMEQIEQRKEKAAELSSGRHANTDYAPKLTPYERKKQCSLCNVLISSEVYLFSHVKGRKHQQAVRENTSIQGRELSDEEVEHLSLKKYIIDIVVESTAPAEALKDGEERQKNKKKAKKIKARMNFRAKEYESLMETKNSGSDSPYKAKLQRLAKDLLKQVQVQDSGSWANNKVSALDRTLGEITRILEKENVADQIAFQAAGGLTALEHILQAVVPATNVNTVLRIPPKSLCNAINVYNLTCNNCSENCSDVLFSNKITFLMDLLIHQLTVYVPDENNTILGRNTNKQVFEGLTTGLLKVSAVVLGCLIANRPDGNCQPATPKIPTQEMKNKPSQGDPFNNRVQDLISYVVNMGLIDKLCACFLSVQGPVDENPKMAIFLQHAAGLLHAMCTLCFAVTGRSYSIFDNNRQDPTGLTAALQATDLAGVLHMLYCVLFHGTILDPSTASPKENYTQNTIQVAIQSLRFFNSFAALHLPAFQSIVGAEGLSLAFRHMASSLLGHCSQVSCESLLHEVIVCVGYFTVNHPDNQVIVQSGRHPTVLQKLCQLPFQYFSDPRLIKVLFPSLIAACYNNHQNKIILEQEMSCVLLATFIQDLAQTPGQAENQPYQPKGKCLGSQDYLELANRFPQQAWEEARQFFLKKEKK

B1: human 6xHis-TEV-Twin-Strep-TTC5 (natural protein)
chain: MMADEEEEVKPILQKLQELVDQLYSFRDCYFETHSVEDAGRKQQDVQKEMEKTLQQMEEVVGSVQGKAQVLMLTGKALNVTPDYSPKAEELLSKAVKLEPELVEAWNQLGEVYWKKGDVAAAHTCFSGALTHCRNKVSLQNLSMVLRQLRTDTEDEHSHHVMDSVRQAKLAVQMDVHDGRSWYILGNSYLSLYFSTGQNPKISQQALSAYAQAEKVDRKASSNPDLHLNRATLHKYEESYGEALEGFSRAAALDPAWPEPRQREQQLLEFLDRLTSLLESKGKVKTKKLQSMLGSLRPAHLGPCSDGHYQSASGQKVTLELKPLSTLQPGVNSGAVILGKVVFSLTTEEKVPFTFGLVDSDGPCYAVMVYNIVQSWGVLIGDSVAIPEPNLRLHRIQHKGKDYSFSSVRVETPLLLVVNGKPQGSSSQAVATVASRPQCE
notes: tetratricopeptide repeat protein 5 (TTC5), human; TEV site between the 6xHis and the Twin-Strep tag; also called tetratricopeptide repeat protein 5; source: E. coli BL21(DE3), purified (Ni-NTA, Streptactin Sepharose); not shown: Twin-Strep, N-terminal, kept
Q: Does B1 bind [1]?
A: Result: binds

Q: Does B1 bind [2]?
A: Result: binds

— paper PMC10403363, “Mechanism of ribosome-associated mRNA degradation during tubulin autoregulation” (Molecular Cell, 2023)
